The target of this assay is T1, S100A9(C3S) subunit of CP-Ser (human, UniProt P06702 1-114, C3S).
T1 construct: S100A9 (calgranulin B, MRP-14), human, 114 amino acids; also called β subunit
T1 sequence (looked up): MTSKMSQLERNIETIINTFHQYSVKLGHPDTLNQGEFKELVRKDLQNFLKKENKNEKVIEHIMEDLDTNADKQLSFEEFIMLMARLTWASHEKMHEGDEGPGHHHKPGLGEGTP
Nature of the assay: co-purification; subunits overexpressed and purified as described previously (ref. 19); the protocol affords the S100A8/S100A9 heterodimer; subunits judged by gel electrophoresis and mass spectrometry.

B1: S100A8(C42S)(I60E) subunit (natural protein, human, UniProt P05109 1-93, looked up)
chain: MLTELEKALNSIIDVYHKYSLIKGNFHAVYRDDLKKLLETESPQYIRKKGADVWFKELDENTDGAVNFQEFLILVIKMGVAAHKKSHEESHKE
notes: S100A8, human, 93 amino acids; also called S100A8 subunit of I60E
As to B1, the binding result is on record as “binds”.

B2: S100A8(C42S)(I60K) subunit (natural protein, human, UniProt P05109 1-93, looked up)
chain: MLTELEKALNSIIDVYHKYSLIKGNFHAVYRDDLKKLLETESPQYIRKKGADVWFKELDKNTDGAVNFQEFLILVIKMGVAAHKKSHEESHKE
notes: S100A8, human, 93 amino acids; also called S100A8 subunit of I60K
Consider B2, for which the binding result is reported as “binds”.

Source of the values: publication PMC4763987, “Calcium-induced tetramerization and zinc chelation shield human calprotectin from degradation by host and bacterial extracellular proteases† †Electronic supplementary information (ESI) available: Supplementary Tables S1–S6, supplementary Fig. S1–S22. Data for protease activity controls are included …” (Chemical Science, 2015).
